Laboratory results reported in article PMC2635478 (Traffic (Copenhagen, Denmark), 2008).
Like-named read-outs stand apart in the source and are kept apart here.

Legend:
SEC [1] = molecular target: the molecule itself; experiment: SEC
SEC [2] = molecular target: the molecule itself; experiment: SEC; remark: listed apart in the source

Protein	stoichiometry N (SEC [1])	stoichiometry N (SEC [2])
NEM-modified PITPβ (phosphatidylinositol transfer protein beta) in cytosol of NEM-treated HL60 cells (natural protein, human (endogenous in HL60), UniProt P48739 1-271, looked up, C95 alkylated by N-ethylmaleimide (NEM)) MVLIKEFRVVLPCSVQEYQVGQLYSVAEASKNETGGGEGIEVLKNEPYEKDGEKGQYTHKIYHLKSKVPAFVRMIAPEGSLVFHEKAWNAYPYCRTIVTNEYMKDDFFIKIETWHKPDLGTLENVHGLDPNTWKTVEIVHIDIADRSQVEPADYKADEDPALFQSVKTKRGPLGPNWKKELANSPDCPQMCAYKLVTIKFKWWGLQSKVENFIQKQEKRIFTNFHRQLFCWIDKWIDLTMEDIRRMEDETQKELETMRKRGSVRGTSAADV	2	–
NEM-modified PITPβ (phosphatidylinositol transfer protein beta) in cytosol of NEM-treated PC12 cells (natural protein, rat (endogenous in PC12), UniProt P53812 1-271, looked up, C95 alkylated by N-ethylmaleimide (NEM)) MVLIKEFRVVLPCSVQEYQVGQLYSVAEASKNETGGGEGIEVLKNEPYENDGEKGQYTHKIYHLKSKVPAFVRMIAPEGSLVFHEKAWNAYPYCRTIVTNEYMKDDFFIKIETWHKPDLGTLENVHGLDPNTWKTVEIVHIDIADRSQVEPADYKADEDPALFQSVKTKRGPLGPNWKKELANTPDCPKMCAYKLVTIKFKWWGLQSKVENFIQKQEKRIFTNLHRQLFCWIDKWIDLTMEDIRRMEDETQKELETMRKKGSVRGTSAADA	–	2
